Measured values published in US8987201B2, “Black bear parathyroid hormone and methods of using black bear parathyroid hormone” (Michigan Technological University, priority 2009, dated 2015).
Marks after values point to notes of the source that are not given here. No end group written: not given here.

Tests used:
rats = details: long-term usage; cited from earlier work
[1] = Serum calcium levels in the rat OVX dose response study; format: in vivo; details: OVX rats; not significant at the p<0.05 level
Protocol: Ninety female, 3-month old Sprague-Dawley rats were obtained. Eighty (80) of the rats were ovariectomized (OVX) and ten (10) underwent a sham OVX procedure (sham OVX) in which the ovaries were left in the animal. The OVX animals were randomly assigned into groups of ten for further experiments.
Following the actual or sham OVX procedure, all animals were untreated for 6 weeks to allow bone loss. After the 6 week period of bone loss, groups of animals were injected for a six- or eight-week period (daily for five days per week) with vehicle (saline) or 3, 10, or 30 μg/kg bear or human PTH1-34. […] The sham OVX group as well as one group of actual OVX rats were euthanized at six weeks while the remaining animals were euthanized at fourteen weeks following the OVX procedure. Samples were obtained from the euthanized animals for further analysis.

ovariectomized rats = details: cited from earlier work
[2] = system: ovariectomized (OVX) Sprague-Dawley rats; experiment: In vivo effects of human PTH1-84 and bear PTH1-84 in ovariectomized rats; design: species or system rat; details: 2.5 nmol/kg s.c., eight weeks
Protocol: Thirty female, 2.5-month old Sprague-Dawley rats were ovariectomized (OVX) at the commercial breeding facility The OVX animals were randomly assigned into 3 groups of 10 animals per group for further experiments.
Six weeks after the OVX procedure, the rats were injected subcutaneously for an eight-week period (daily for five days per week) with vehicle (saline) or 2.5 nmol/kg bear or human PTH1-84. Animals were euthanized 24 hours after the last injection. Samples were obtained from the euthanized animals for further analysis.
Femur bending strength and proximal tibia trabecular architecture were investigated as described in Example 12.

Male Swiss-Webster mice [3] = experiment: Cortical bone mechanical properties of the femur (3-point bending); format: in vivo, mouse; details: 2.5 nmol/kg, 8 weeks
Excerpt: (§1) All handling procedures and experiments were approved by the Michigan Technological University Institutional Animal Care and Use Committees. Male Swiss-Webster mice were obtained from a commercial breeder (Harlan, Indianapolis, Ind.). All animals were maintained on a 12-h light/12-h dark cycle, and were permitted free access to water and food containing 0.95% calcium (Purina Rodent Diet #5001).
In the first experiment, 11 wk old mice received daily (5 days/week) subcutaneous injections of 2.5 nmol/kg PTH 1-34 (hPTH 1-34 or bbPTH 1-34) or acidic saline vehicle (0.15 M NaCl+0.001 N HCl) for 8 weeks (n=10 mice/group). In the second experiment, 12 wk old mice received daily (5 days/week) subcutaneous injections of 2.5 nmol/kg PTH 1-84 (hPTH 1-84 or bbPTH 1-84) or acidic saline vehicle for 8 weeks (n=10 mice/group). […]
Left femurs were loaded to failure in 3-point bending on an Instron mechanical testing system (Model #8872, Canton, Mass.) at a rate of 1 mm/min. […] Ultimate load was calculated using the load-deformation data from testing.
All bone geometrical, architectural, and mineral properties were normalized by body mass to account for potential variation in animal size (31-33). Trabecular bone properties quantified by micro-computed tomography were compared by ANOVA between vehicle, bear, and human PTH-treated mice within each study (PTH 1-34 or PTH 1-84). […]

Male Swiss-Webster mice [4] = experiment: Cortical bone mineral content (ash fraction) and geometrical properties of the femur; format: in vivo, mouse; details: femoral midshaft, 2.5 nmol/kg s.c., 8 weeks, normalized by body mass, SD in parentheses
Excerpt: as §1
(§2) In the first experiment, 11 wk old mice received daily (5 days/week) subcutaneous injections of 2.5 nmol/kg PTH 1-34 (hPTH 1-34 or bbPTH 1-34) or acidic saline vehicle (0.15 M NaCl+0.001 N HCl) for 8 weeks (n=10 mice/group). In the second experiment, 12 wk old mice received daily (5 days/week) subcutaneous injections of 2.5 nmol/kg PTH 1-84 (hPTH 1-84 or bbPTH 1-84) or acidic saline vehicle for 8 weeks (n=10 mice/group). All PTH- and vehicle-treated animals received subcutaneous injections of calcein at a dosage of 10 mg/kg on days 12 and 3 before death to label mineralizing bone surfaces. Twenty-four hours following the last treatment injection, mice were sacrificed by carbon dioxide asphyxiation. Right femurs were fixed in 10% neutral buffered formalin. Left femurs were wrapped in 0.15M saline soaked gauze and stored at −20 deg C. Left tibias were stored in 70% ethanol at 4 deg C.
(§3) Following the bending test, the left femoral diaphyses were ashed in a furnace to determine mineral content (ash fraction). Right femoral diaphyses were embedded in methyl methacrylate and sectioned with a diamond saw to expose the midshaft cross-section. Images of the midshaft cross-sections were captured using a digital camera (Spot Insight QE, Diagnostic Instruments Inc., Sterling Heights, Mich.), and Scion Image analysis software (Scion Corporation, Frederick, Md.) was used to calculate the periosteal area (Ps.Ar), cortical area (Ct.Ar), and endosteal area (Es.Ar) for each sample. Cortical bone thickness (Ct.Th) was calculated in 0.1 mm increments for each anatomical quadrant and for the entire cross-section using image analysis software (Bioquant Osteo, Nashville, Tenn.). Thin sections from the midshaft of the right femur were ground to a thickness of 50 μm and mounted on glass slides. Images of calcein labels were captured at 100× magnification and periosteal and endosteal mineral apposition rates (Ps.MAR and Es.MAR, respectively) and mineralizing surfaces (Ps.MS/BS and Es.MS/MS) were quantified (Bioquant) for each femur.
(§4) All bone geometrical, architectural, and mineral properties were normalized by body mass to account for potential variation in animal size (31-33). Trabecular bone properties quantified by micro-computed tomography were compared by ANOVA between vehicle, bear, and human PTH-treated mice within each study (PTH 1-34 or PTH 1-84). The microCT parameters were not directly compared between the PTH 1-34 and PTH 1-84 studies because analyses were conducted on different microCT machines. For all other bone properties, all six experimental groups (from both the PTH 1-34 and PTH 1-84 studies) were compared with ANOVA and Fisher's PLSD. A significance of p<0.05 was used for all comparisons.

Male Swiss-Webster mice [5] = experiment: Trabecular bone structure and mineralization in the proximal tibia (micro-computed tomography); format: in vivo, mouse; details: 8 weeks
Excerpt: as §1, §2
Trabecular bone architecture and mineralization were evaluated in the left proximal tibial metaphysis (0.7 mm distal to the growth plate) using micro-computed tomography. Tibias from experiment 1 were scanned on a μCT35 scanner (Scanco Medical AG, Basserdorf, Switzerland) at 3.5 μm (high) resolution. Tibias from experiment 2 were scanned on a μCT40 scanner (Scanco Medical AG, Basserdorf, Switzerland) at 7 μm (high) resolution. Bones were scanned in 70% ethanol. Trabecular bone volume fraction (BV/TV, %), trabecular number (Tb.N, mm^−1), trabecular thickness (Tb.Th, m), trabecular separation (Tb.Sp, m), trabecular apparent mineral density (App.Mn.Dn, mgHA/cm^3) and trabecular tissue mineral density (Mat.Mn.Dn, mgHA/cm^3) were computed using the manufacturer's software.
as §4

[6] = system: human fetal osteoblasts (hFOB); experiment: Serum starvation cell death in human fetal osteoblasts (trypan blue); format: cell-based; details: 100 nM for 1 hour before serum starvation for 24 hours, preliminary studies, p<0.0001
Protocol: All PTH peptides used in the current study attenuated apoptotic signaling induced by serum starvation in vitro (FIG. 19). bbPTH 1-34 reduced apoptotic signaling in pre-osteoblastic cells more than human PTH (FIG. 19). Recently, we found similar results with preliminary studies in human fetal osteoblasts (hFOB). Serum starvation for 24 hours increased cell death in hFOB (confirmed via trypan blue staining), but pretreatment of hFOB cells with 100 nM PTH 1-34 or 1-84 for 1 hour before starvation reduced percent cell death (percentage change in cell death compared to vehicle pretreatment, hPTH 1-34: −18%, bbPTH 1-34: −25%, hPTH 1-84: −17%, bbPTH 1-84: −21%; p<0.0001; data not shown). […] However, although bbPTH 1-84 was less anti-apoptotic than bbPTH 1-34 and hPTH 1-34 in vitro (FIG. 19) it caused the greatest increases in cortical and trabecular bone mass in the in vivo studies (Table 1, Table 2).

Male Swiss-Webster mice [7] = experiment: Cortical bone dynamic histomorphometry in the femur (calcein labels); format: in vivo, mouse; details: femoral midshaft, 2.5 nmol/kg s.c., 8 weeks, SD in parentheses
Excerpt: as §1, §2, §3, §4

[8] = PTH 1-84 study: 12 wk old mice, 2.5 nmol/kg s.c., proximal tibia, normalized by body mass

In the case of CC[C@H](C)[C@H](NC(=O)[C@H](CCC(=O)O)NC(=O)[C@H](CO)NC(=O)[C@@H](NC(=O)[C@@H](N)CO)C(C)C)C(=O)N[C@@H](CCC(N)=O)C(=O)N[C@@H](CC(C)C)C(=O)N[C@@H](CCSC)C(=O)N[C@@H](Cc1cnc[nH]1)C(=O)N[C@@H](CC(N)=O)C(=O)N[C@@H](CC(C)C)C(=O)NCC(=O)N[C@@H](CCCCN)C(=O)N[C@@H](Cc1cnc[nH]1)C(=O)N[C@@H](CC(C)C)C(=O)N[C@@H](CC(N)=O)C(=O)N[C@@H](CO)C(=O)N[C@@H](CCSC)C(=O)N[C@@H](CCC(=O)O)C(=O)N[C@@H](CCCN=C(N)N)C(=O)N[C@H](C(=O)N[C@@H](CCC(=O)O)C(=O)N[C@@H](Cc1c[nH]c2ccccc12)C(=O)N[C@@H](CC(C)C)C(=O)N[C@@H](CCCN=C(N)N)C(=O)N[C@@H](CCCCN)C(=O)N[C@@H](CCCCN)C(=O)N[C@@H](CC(C)C)C(=O)N[C@@H](CCC(N)=O)C(=O)N[C@@H](CC(=O)O)C(=O)N[C@H](C(=O)N[C@@H](Cc1cnc[nH]1)C(=O)N[C@@H](CC(N)=O)C(=O)N[C@@H](Cc1ccccc1)C(=O)O)C(C)C)C(C)C [LY333334], the osteosarcoma in rats (rats) is listed as “generates osteosarcoma”.

In the case of “SVSEIQFMHNLGKHLSSMERVEWLRKKLQDVHNF [bbPTH 1-34, black bear PTH 1-34]”, the “serum calcium levels compared to human PTH1-34” value [1] is reported as “lower”.

For “bovine PTH 1-34 (AVSEIQFMHNLGKHLSSMERVEWLRKKLQDVHNF; Parathyroid hormone; UniProt P01268 32-65, looked up, fragment) [1-34 fragment of bovine PTH]”, the “greater bone formation response than to rat PTH 1-34” value (ovariectomized rats; daily 25 μg injections) is listed as 25% and the “greater increase in bone volume fraction during treatment” value (ovariectomized rats; injection) is listed as 37%.

B1: black bear PTH1-84 (protein, listed as Ursus americanus)
chain: SVSEIQFMHNLGKHLSSMERVEWLRKKLQDVHNFVALGAPTAHRDGGSQRPQKKEDNVLVENHQKSLGEADKADVDVLTKAKSQ
In the case of B1, the “bone volume fraction / trabecular bone volume” value [2] is reported as “equivalently increase”, the “increases in cortical bone strength compared to hPTH1-84” value [2] is reported as “greater increases” and the “ultimate load of the femur compared to vehicle treatment” value [2] is reported as “significantly (p=0.013) increased”. The “increase in bone strength (ultimate load of the femur), bear peptide compared to the corresponding human peptide” value (Male Swiss-Webster mice [3]) was “significantly (p=0.032) greater”, the “increase of femoral ultimate load over vehicle treatment” value (Male Swiss-Webster mice [3]; only for this peptide) was “statistically significant” and the Ct.Ar (Male Swiss-Webster mice [4]) was 31.7 (3.7) mm^2/kg. The Ct.Th (Male Swiss-Webster mice [4]) was 3.56 (0.42)^a mm/kg, the Es.Ar (Male Swiss-Webster mice [4]) was 26.6 (4.6) mm^2/kg and the Ps.Ar (Male Swiss-Webster mice [4]) was 58.3 (5.0)^a,b mm^2/kg. For the same molecule, the BV/TV (Male Swiss-Webster mice [5]; PTH 1-84 study: 12 wk old mice, 2.5 nmol/kg s.c. daily 5 days/week, proximal tibia, normalized by body mass) was 2.26 %/kg, the “App. Mn. Dn” value (Male Swiss-Webster mice [5]; [8]) was 3665 mgHA/(cm^3*kg) and the “Mat. Mn. Dn.” value (Male Swiss-Webster mice [5]; [8]) was 30552 mgHA/(cm^3*kg). The “Tb. N” value (Male Swiss-Webster mice [5]; [8]) was 113.8 1/mm*kg, the “Tb. Sp” value (Male Swiss-Webster mice [5]; [8]) was 8.47 mm/kg and the “Tb. Th” value (Male Swiss-Webster mice [5]; [8]) was 1.38 mm/kg. The “trabecular apparent mineral density compared to other treatments” value (Male Swiss-Webster mice [5]; mice, 2.5 nmol/kg, bbPTH 1-84 vs hPTH 1-84 p=0.019) was “highest”, the “trabecular bone volume fraction and apparent mineral density over vehicle treatment” value (Male Swiss-Webster mice [5]; mice, 2.5 nmol/kg, only this peptide) was “significantly increased over vehicle treatment” and the “bone volume fraction in the proximal tibia compared to hPTH 1-84” value (Male Swiss-Webster mice [5]; mice, 2.5 nmol/kg, p=0.013) was “greater”. The “percentage change in cell death compared to vehicle pretreatment” value [6] was −21%, the “Endosteal MAR” value (Male Swiss-Webster mice [7]) was 0.59 (0.42) and the “Endosteal MS/BS” value (Male Swiss-Webster mice [7]) was 24.5 (17.2). For the same molecule, the “Periosteal MAR” value (Male Swiss-Webster mice [7]) was 0.62 (0.33) and the “Periosteal MS/BS” value (Male Swiss-Webster mice [7]) was 31.3 (22.5).
